Data on one substance can be found in patent publication US5294543.

The target of the assay is fibrinogen receptor on platelets (Homo sapiens (Human)) (UniProt P08514).

Take chrysoptin: the IC50 of inhibition of platelet aggregation induced by 5 µM ADP worked out at 16 nM.
